B1: luciferase-FOXP2 (wild-type, full-length 1-715) [human] / YFP-PIAS3 [human] (parent complex)
chain 1: MMQESATETISNSSMNQNGMSTLSSQLDAGSRDGRSSGDTSSEVSTVELLHLQQQQALQAARQLLLQQQTSGLKSPKSSDKQRPLQVPVSVAMMTPQVITPQQMQQILQQQVLSPQQLQALLQQQQAVMLQQQQLQEFYKKQQEQLHLQLLQQQQQQQQQQQQQQQQQQQQQQQQQQQQQQQQQQQQQQQQHPGKQAKEQQQQQQQQQQLAAQQLVFQQQLLQMQQLQQQQHLLSLQRQGLISIPPGQAALPVQSLPQAGLSPAEIQQLWKEVTGVHSMEDNGIKHGGLDLTTNNSSSTTSSNTSKASPPITHHSIVNGQSSVLSARRDSSSHEETGASHTLYGHGVCKWPGCESICEDFGQFLKHLNNEHALDDRSTAQCRVQMQVVQQLEIQLSKERERLQAMMTHLHMRPSEPKPSPKPLNLVSSVTMSKNMLETSPQSLPQTPTTPTAPVTPITQGPSVITPASVPNVGAIRRRHSDKYNIPMSSEIAPNYEFYKNADVRPPFTYATLIRQAIMESSDRQLTLNEIYSWFTRTFAYFRRNAATWKNAVRHNLSLHKCFVRVENVKGAVWTVDEVEYQKRRSQKITGSPTLVKNIPTSLGYGAALNASLQAALAESSLPLLSNPGLINNASSGLLQAVHEDLNGSLDHIDSNGNSSPGCSPQPHIHSIHVKEEPVIAEDEDCPMSLVTTANHSPELEDDREIEEEPLSEDLE
chain 2: MAELGELKHMVMSFRVSELQVLLGFAGRNKSGRKHELLAKALHLLKSSCAPSVQMKIKELYRRRFPRKTLGPSDLSLLSLPPGTSPVGSPGPLAPIPPTLLAPGTLLGPKREVDMHPPLPQPVHPDVTMKPLPFYEVYGELIRPTTLASTSSQRFEEAHFTFALTPQQVQQILTSREVLPGAKCDYTIQVQLRFCLCETSCPQEDYFPPNLFVKVNGKLCPLPGYLPPTKNGAEPKRPSRPINITPLARLSATVPNTIVVNWSSEFGRNYSLSVYLVRQLTAGTLLQKLRAKGIRNPDHSRALIKEKLTADPDSEVATTSLRVSLMCPLGKMRLTVPCRALTCAHLQSFDAALYLQMNEKKPTWTCPVCDKKAPYESLIIDGLFMEILSSCSDCDEIQFMEDGSWCPMKPKKEASEVCPPPGYGLDGLQYSPVQGGDPSENKKKVEVIDLTIESSSDEEDLPPTKKHCSVTSAAIPALPGSKGVLTSGHQPSSVLRSPAMGTLGGDFLSSLPLHEYPPAFPLGADIQGLDLFSFLQTESQHYGPSVITSLDEQDALGHFFQYRGTPSHFLGPLAPTLGSSHCSATPAPPPGRVSSIVAPGGALREGHGGPLPSGPSLTGCRSDIISLD
B2: luciferase-FOXP2 (wild-type, full-length 1-715) [human] / YFP-PIAS2 [human] (parent complex)
chain 1: B1 chain 1
chain 2: MADFEELRNMVSSFRVSELQVLLGFAGRNKSGRKHDLLMRALHLLKSGCSPAVQIKIRELYRRRYPRTLEGLSDLSTIKSSVFSLDGGSSPVEPDLAVAGIHSLPSTSVTPHSPSSPVGSVLLQDTKPTFEMQQPSPPIPPVHPDVQLKNLPFYDVLDVLIKPTSLVQSSIQRFQEKFFIFALTPQQVREICISRDFLPGGRRDYTVQVQLRLCLAETSCPQEDNYPNSLCIKVNGKLFPLPGYAPPPKNGIEQKRPGRPLNITSLVRLSSAVPNQISISWASEIGKNYSMSVYLVRQLTSAMLLQRLKMKGIRNPDHSRALIKEKLTADPDSEIATTSLRVSLMCPLGKMRLTIPCRAVTCTHLQCFDAALYLQMNEKKPTWICPVCDKKAAYESLILDGLFMEILNDCSDVDEIKFQEDGSWCPMRPKKEAMKVSSQPCTKIESSSVLSKPCSVTVASEASKKKVDVIDLTIESSSDEEEDPPAKRKCIFMSETQSSPTKGVLMYQPSSVRVPSVTSVDPAAIPPSLTDYSVPFHHTPISSMSSDLPGLDFLSLIPVDPQYCPPMFLDSLTSPLTASSTSVTTTSSHESSTHVSSSSSRSETGVITSSGSNIPDIISLD
B3: luciferase-FOXP2 (wild-type, full-length 1-715) [human] / YFP-PIAS4 [human] (parent complex)
chain 1: B1 chain 1
chain 2: MAAELVEAKNMVMSFRVSDLQMLLGFVGRSKSGLKHELVTRALQLVQFDCSPELFKKIKELYETRYAKKNSEPAPQPHRPLDPLTMHSTYDRAGAVPRTPLAGPNIDYPVLYGKYLNGLGRLPAKTLKPEVRLVKLPFFNMLDELLKPTELVPQNNEKLQESPCIFALTPRQVELIRNSRELQPGVKAVQVVLRICYSDTSCPQEDQYPPNIAVKVNHSYCSVPGYYPSNKPGVEPKRPCRPINLTHLMYLSSATNRITVTWGNYGKSYSVALYLVRQLTSSELLQRLKTIGVKHPELCKALVKEKLRLDPDSEIATTGVRVSLICPLVKMRLSVPCRAETCAHLQCFDAVFYLQMNEKKPTWMCPVCDKPAPYDQLIIDGLLSKILSECEDADEIEYLVDGSWCPIRAEKERSCSPQGAILVLGPSDANGLLPAPSVNGSGALGSTGGGGPVGSMENGKPGADVVDLTLDSSSSSEDEEEEEEEEEDEDEEGPRPKRRCPFQKGLVPAC
B4: luciferase-FOXP2 (wild-type, full-length 1-715) [human] / YFP-PIAS1 (wild-type) [human] (parent complex)
chain 1: B1 chain 1
chain 2: MADSAELKQMVMSLRVSELQVLLGYAGRNKHGRKHELLTKALHLLKAGCSPAVQMKIKELYRRRFPQKIMTPADLSIPNVHSSPMPATLSPSTIPQLTYDGHPASSPLLPVSLLGPKHELELPHLTSALHPVHPDIKLQKLPFYDLLDELIKPTSLASDNSQRFRETCFAFALTPQQVQQISSSMDISGTKCDFTVQVQLRFCLSETSCPQEDHFPPNLCVKVNTKPCSLPGYLPPTKNGVEPKRPSRPINITSLVRLSTTVPNTIVVSWTAEIGRNYSMAVYLVKQLSSTVLLQRLRAKGIRNPDHSRALIKEKLTADPDSEIATTSLRVSLLCPLGKMRLTIPCRALTCSHLQCFDATLYIQMNEKKPTWVCPVCDKKAPYEHLIIDGLFMEILKYCTDCDEIQFKEDGTWAPMRSKKEVQEVSASYNGVDGCLSSTLEHQVASHHQSSNKNKKVEVIDLTIDSSSDEEEEEPSAKRTCPSLSPTSPLNNKGILSLPHQASPVSRTPSLPAVDTSYINTSLIQDYRHPFHMTPMPYDLQGLDFFPFLSGDNQHYNTSLLAAAAAAVSDDQDLLHSSRFFPYTSSQMFLDQLSAGGSTSLPTTNGSSSGSNSSLVSSNSLRESHSHTVTNRSSTDTASIFGIIPDIISLD

Variants of: B1
Assay: BRET; control donor est. 0.040; read off a plot

Variant	response [BRET ratio]
chain 1 K674R	~0.087

Variants of: B1
Assay: BRET; HEK293 cells; n = 3; control donor (nuclear-targeted luciferase) est. -0.003; read off a plot

Variant	response [BRET ratio]
chain 1 R553H	~0.026

Variants of: B2
Assay: BRET; control donor est. 0.030; read off a plot

Variant	response [BRET ratio]
chain 1 K674R	~0.047

Variants of: B2
Assay: BRET; HEK293 cells; n = 3; control donor (nuclear-targeted luciferase) est. -0.008; read off a plot

Variant	response [BRET ratio]
chain 1 R553H	~-0.005

Variants of: B3
Assay: BRET; control donor est. 0.026; read off a plot

Variant	response [BRET ratio]
chain 1 K674R	~0.071

Variants of: B3
Assay: BRET; HEK293 cells; n = 3; control donor (nuclear-targeted luciferase) est. 0.001; read off a plot

Variant	response [BRET ratio]
chain 1 R553H	~-0.006

Variants of: B4
Assay: BRET; control donor est. 0.036; read off a plot

Variant	response [BRET ratio]
chain 1 K674R	~0.11

Variants of: B4
Assay: BRET; HEK293 cells; n = 3; control donor (nuclear-targeted luciferase) est. 0.000; read off a plot

Variant	response [BRET ratio]
chain 1 R553H	~0.014

— publication PMC4751435 (2016)
